Data from paper PMC3226482 (Molecular Biology of the Cell, 2011).
Residue numbers refer to the chain shown, from its start.

T1: karyopherin β2 (human, UniProt Q92973 1-898)
T1 sequence: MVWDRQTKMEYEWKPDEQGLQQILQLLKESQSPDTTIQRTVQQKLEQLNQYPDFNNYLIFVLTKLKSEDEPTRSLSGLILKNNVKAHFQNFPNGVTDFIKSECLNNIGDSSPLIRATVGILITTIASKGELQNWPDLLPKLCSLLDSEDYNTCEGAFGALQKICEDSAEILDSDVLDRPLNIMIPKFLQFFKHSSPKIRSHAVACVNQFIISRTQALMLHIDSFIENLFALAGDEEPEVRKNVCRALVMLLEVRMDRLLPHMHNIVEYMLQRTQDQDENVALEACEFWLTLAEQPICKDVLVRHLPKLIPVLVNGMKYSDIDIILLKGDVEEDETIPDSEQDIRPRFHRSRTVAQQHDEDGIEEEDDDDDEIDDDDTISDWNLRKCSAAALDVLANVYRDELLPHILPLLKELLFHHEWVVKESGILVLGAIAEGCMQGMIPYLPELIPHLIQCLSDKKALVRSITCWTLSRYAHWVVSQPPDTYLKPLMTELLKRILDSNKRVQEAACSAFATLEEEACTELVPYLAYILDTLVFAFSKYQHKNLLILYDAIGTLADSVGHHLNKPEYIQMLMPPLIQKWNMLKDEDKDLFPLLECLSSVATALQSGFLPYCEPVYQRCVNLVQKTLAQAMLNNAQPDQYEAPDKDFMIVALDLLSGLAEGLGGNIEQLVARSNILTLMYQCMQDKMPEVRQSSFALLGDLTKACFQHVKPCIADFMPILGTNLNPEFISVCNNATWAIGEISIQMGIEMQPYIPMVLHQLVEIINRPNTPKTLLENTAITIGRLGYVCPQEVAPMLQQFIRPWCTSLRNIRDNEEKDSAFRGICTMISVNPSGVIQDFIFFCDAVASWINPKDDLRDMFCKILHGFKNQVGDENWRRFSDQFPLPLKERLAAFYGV

T2: GST-Imp11 (human, UniProt Q9UI26 1-975)
T2 sequence: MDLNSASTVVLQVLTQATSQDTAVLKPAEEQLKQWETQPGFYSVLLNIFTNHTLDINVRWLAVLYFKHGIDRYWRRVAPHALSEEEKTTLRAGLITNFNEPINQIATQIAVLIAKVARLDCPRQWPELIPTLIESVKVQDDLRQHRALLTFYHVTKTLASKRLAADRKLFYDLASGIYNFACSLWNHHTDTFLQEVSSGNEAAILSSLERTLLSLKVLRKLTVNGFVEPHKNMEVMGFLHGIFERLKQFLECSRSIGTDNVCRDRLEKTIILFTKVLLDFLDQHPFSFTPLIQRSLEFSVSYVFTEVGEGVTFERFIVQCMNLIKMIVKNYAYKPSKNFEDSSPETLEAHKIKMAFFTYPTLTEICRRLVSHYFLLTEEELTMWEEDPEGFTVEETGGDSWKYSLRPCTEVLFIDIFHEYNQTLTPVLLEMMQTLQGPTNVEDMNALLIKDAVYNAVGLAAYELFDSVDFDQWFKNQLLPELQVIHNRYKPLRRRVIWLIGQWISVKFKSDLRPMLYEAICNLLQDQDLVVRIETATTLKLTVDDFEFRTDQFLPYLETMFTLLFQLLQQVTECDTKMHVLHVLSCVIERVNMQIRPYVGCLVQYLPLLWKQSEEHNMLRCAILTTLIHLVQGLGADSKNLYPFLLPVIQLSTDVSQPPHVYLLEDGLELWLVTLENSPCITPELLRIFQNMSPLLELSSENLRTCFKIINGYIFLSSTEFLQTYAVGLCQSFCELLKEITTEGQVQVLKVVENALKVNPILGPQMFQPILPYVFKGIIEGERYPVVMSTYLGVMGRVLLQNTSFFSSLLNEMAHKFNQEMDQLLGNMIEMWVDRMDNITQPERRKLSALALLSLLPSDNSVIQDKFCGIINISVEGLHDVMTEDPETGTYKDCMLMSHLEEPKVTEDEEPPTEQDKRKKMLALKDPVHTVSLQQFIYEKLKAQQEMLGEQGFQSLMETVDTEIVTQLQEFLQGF

T3: GST-Imp4 (human, UniProt Q8TEX9 1-1081)
T3 sequence: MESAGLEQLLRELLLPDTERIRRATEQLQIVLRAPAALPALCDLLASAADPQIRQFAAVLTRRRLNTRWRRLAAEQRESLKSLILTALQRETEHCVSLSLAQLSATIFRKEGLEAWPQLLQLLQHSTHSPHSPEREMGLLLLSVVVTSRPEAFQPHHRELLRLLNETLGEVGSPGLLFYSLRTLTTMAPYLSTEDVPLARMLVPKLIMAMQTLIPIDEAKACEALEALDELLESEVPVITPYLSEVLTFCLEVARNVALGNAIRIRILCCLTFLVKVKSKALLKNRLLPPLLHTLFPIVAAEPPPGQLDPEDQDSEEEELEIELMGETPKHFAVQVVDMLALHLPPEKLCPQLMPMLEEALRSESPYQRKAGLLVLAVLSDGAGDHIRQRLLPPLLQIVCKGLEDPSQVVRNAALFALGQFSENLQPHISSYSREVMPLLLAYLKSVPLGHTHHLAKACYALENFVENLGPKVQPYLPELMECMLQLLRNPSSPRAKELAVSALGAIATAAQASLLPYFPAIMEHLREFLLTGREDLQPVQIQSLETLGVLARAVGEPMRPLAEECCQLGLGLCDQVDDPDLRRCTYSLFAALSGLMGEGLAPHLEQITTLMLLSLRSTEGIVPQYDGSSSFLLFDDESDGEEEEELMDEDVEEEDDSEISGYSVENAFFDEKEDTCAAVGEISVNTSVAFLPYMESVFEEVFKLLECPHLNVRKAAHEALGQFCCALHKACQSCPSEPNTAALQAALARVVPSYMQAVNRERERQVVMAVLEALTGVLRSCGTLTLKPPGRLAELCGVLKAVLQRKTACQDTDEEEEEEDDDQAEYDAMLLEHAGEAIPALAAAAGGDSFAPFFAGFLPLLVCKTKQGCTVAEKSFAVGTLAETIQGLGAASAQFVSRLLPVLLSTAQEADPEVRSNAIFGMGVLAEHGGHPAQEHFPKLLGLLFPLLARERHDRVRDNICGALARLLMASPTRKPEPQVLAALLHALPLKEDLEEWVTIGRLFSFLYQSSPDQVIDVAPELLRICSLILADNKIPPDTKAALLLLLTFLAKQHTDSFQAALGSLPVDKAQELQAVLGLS

T4: importin 11 (human, UniProt Q9UI26 1-975)
T4 sequence: T2 sequence

B1: importin 4 (natural protein)
chain: T3 sequence
B2: MBP-hsNXF1-N (domain or fragment)
chain: MADEGKSYSEHDDERVNFPQRKKKGRGPFRWKYGEGNRRSGRGGSGIRSSRLEEDDGDVAMSDAQDGPRVRYNPYTTRPNRRGDTWHDRDRIHVTVRRDRAPPERGGAG
B3: MBP-hsNXF1-N(71-75/A) (domain or fragment)
chain: B2 chain with R71A, Y72A, N73A, P74A, Y75A
B4: MBP-hsNXF1-N(21-30/A) (domain or fragment)
chain: B2 chain with R21A, K22A, K23A, K24A, G25A, R26A, G27A, P28A, F29A, R30A
B5: GST-hsNXF1 (full-length human NXF1) (natural protein)
chain: MADEGKSYSEHDDERVNFPQRKKKGRGPFRWKYGEGNRRSGRGGSGIRSSRLEEDDGDVAMSDAQDGPRVRYNPYTTRPNRRGDTWHDRDRIHVTVRRDRAPPERGGAGTSQDGTSKNWFKITIPYGRKYDKAWLLSMIQSKCSVPFTPIEFHYENTRAQFFVEDASTASALKAVNYKILDRENRRISIIINSSAPPHTILNELKPEQVEQLKLIMSKRYDGSQQALDLKGLRSDPDLVAQNIDVVLNRRSCMAATLRIIEENIPELLSLNLSNNRLYRLDDMSSIVQKAPNLKILNLSGNELKSERELDKIKGLKLEELWLDGNSLCDTFRDQSTYISAIRERFPKLLRLDGHELPPPIAFDVEAPTTLPPCKGSYFGTENLKSLVLHFLQQYYAIYDSGDRQGLLDAYHDGACCSLSIPFIPQNPARSSLAEYFKDSRNVKKLKDPTLRFRLLKHTRLNVVAFLNELPKTQHDVNSFVVDISAQTSTLLCFSVNGVFKEVDGKSRDSLRAFTRTFIAVPASNSGLCIVNDELFVRNASSEEIQRAFAMPAPTPSSSPVPTLSPEQQEMLQAFSTQSGMNLEWSQKCLQDNNWDYTRSAQAFTHLKAKGEIPEVAFMK

Assays:
[1] = biological target: RanGTP (recombinant human Ran loaded with GTP) (human, UniProt P62826 1-216); experiment: pull-down
karyopherin β2 = biological target: T1, karyopherin β2; experiment: ITC
importin β [2] = biological target: T5, importin β (human, UniProt Q14974 1-876); experiment: ITC
T5 sequence (Q14974 whole entry): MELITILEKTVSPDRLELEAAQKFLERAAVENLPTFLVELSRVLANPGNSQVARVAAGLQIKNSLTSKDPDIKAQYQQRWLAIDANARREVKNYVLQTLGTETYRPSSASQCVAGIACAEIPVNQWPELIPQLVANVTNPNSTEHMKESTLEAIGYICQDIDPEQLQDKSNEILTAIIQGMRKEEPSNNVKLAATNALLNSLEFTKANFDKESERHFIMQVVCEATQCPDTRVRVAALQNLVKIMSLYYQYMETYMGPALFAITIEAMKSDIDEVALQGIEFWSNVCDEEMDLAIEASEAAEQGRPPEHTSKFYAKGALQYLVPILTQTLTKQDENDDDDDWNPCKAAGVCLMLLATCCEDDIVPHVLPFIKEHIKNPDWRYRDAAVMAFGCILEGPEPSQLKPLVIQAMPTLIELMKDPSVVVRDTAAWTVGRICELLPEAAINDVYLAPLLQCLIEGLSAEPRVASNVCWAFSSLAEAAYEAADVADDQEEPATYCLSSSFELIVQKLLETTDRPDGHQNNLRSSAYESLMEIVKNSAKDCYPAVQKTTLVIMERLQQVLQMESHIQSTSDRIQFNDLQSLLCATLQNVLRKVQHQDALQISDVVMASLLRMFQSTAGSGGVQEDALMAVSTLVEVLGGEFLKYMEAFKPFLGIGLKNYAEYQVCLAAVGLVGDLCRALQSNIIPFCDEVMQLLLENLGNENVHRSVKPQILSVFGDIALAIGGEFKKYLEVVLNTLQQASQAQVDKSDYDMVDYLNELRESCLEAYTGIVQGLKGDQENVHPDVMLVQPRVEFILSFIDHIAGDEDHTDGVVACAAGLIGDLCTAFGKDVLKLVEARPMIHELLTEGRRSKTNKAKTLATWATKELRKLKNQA

GST-Imp11 = biological target: T2, GST-Imp11; experiment: pull-down
GST-Imp4 = biological target: T3, GST-Imp4; experiment: pull-down
importin 11 = biological target: T4, importin 11; experiment: pull-down
importin 4 = biological target: B1; experiment: pull-down
importin β [3] = biological target: T5, importin β; experiment: pull-down

Binder | Kd (karyopherin β2) [nM] | dH (karyopherin β2) [kcal/mol] | dH (two-site model, site 1) (importin β [2]) [kcal/mol] | dH (two-site model, site 2) (importin β [2]) [kcal/mol] | other results
B1 |  |  |  |  | binding result [1]: binds
B2 | 40.5 | -17.2 | -7.51 | -4.6 | binding result (GST-Imp11): binds; binding result (GST-Imp4): binds
B3 | 215 | -12.9 | -7.73 | -3.28 | 
B4 | 128 | -13.9 |  |  | Kd (importin β [2]): 2230 nM; dH (importin β [2]): -2.48 kcal/mol
B5 |  |  |  |  | binding result (importin 11): binds; binding result (importin 4): binds; binding result (importin β [3]): binds
